# Measured values: US20240344241A1, “PROTEINACEOUS MOLECULES AND USES THEREFOR” (THE UNIVERSITY OF QUEENSLAND, priority 2021, published 2024)
# Where two headings read alike, the source gives them in different places. Ends that are not written are not given here.
# How the values were obtained:
# [1] = biological target: T1, human β-factor XIIa (human), P00748; assay: competitive protease inhibition assay, Ac-QRFR-pNA substrate, Morrison Ki
# T1 chain 1: NGPLSCGQR
# T1 chain 2: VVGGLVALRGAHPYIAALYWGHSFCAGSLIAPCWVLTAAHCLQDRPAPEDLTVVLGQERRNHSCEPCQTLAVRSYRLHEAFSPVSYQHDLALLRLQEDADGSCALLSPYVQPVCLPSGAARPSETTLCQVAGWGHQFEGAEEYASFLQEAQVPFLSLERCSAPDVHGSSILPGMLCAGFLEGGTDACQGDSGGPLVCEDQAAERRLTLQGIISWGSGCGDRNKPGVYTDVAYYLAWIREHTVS
# [2] = biological target: T2, recombinant human matriptase (human), Q9Y5Y6; assay: competitive protease inhibition assay (selectivity panel), human matriptase, Boc-QAR-MCA
# T2 chain: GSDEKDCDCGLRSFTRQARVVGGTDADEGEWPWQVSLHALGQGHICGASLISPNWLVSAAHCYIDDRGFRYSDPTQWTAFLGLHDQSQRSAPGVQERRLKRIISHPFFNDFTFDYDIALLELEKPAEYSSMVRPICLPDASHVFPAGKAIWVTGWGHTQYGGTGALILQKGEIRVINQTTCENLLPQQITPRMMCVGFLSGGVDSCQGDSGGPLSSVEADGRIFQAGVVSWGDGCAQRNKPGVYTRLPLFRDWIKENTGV
# [3] = biological target: T1, human β-factor XIIa (human), P00748; assay: SPR (Biacore T200), biotinylated human β-FXIIa captured on chip, peptide as analyte, 1:1 model
# [4] = biological target: bovine trypsin (bovine), P00760; assay: SPR, ratio of KD values
# Chain of bovine trypsin (bovine), P00760 (P00760 24-246): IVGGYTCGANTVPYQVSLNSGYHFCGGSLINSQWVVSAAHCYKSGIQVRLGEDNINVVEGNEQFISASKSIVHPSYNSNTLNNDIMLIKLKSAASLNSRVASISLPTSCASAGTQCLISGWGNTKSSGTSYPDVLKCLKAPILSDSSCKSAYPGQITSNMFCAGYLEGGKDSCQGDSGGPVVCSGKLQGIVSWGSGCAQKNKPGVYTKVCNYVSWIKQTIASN
# [5] = biological target: T1, human β-factor XIIa (human), P00748; assay: SPR, ratio of KD values
# [6] = biological target: bovine trypsin (bovine), P00760; assay: SPR, bovine trypsin
# [7] = biological target: T3, FXIIa in human plasma (generated by kaolin activation of FXII in aPTT assays) (human), P00748; assay: cell-based or functional assay
# T3 chain: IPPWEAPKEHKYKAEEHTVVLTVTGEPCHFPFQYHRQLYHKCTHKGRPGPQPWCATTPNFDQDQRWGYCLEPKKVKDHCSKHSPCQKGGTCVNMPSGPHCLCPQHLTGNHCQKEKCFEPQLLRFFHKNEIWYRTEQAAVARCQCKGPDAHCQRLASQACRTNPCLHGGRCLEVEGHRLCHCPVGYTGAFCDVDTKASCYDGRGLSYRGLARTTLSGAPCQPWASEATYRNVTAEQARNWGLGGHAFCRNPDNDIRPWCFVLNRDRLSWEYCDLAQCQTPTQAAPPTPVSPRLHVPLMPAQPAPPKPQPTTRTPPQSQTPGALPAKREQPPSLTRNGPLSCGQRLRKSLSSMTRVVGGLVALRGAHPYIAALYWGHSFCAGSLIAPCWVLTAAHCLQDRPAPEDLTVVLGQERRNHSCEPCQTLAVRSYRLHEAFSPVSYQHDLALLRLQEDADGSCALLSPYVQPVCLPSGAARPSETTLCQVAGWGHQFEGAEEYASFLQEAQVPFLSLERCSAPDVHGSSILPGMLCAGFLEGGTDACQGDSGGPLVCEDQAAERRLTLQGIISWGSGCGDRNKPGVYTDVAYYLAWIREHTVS
# [8] = biological target: T1, human β-factor XIIa (human), P00748; assay: competitive protease inhibition assay, ratio of Ki values
# [9] = biological target: human cationic trypsin (human), P07477; assay: competitive protease inhibition assay (selectivity panel), human trypsin, Boc-VPR-MCA
# [10] = biological target: human cationic trypsin (human), P07477; assay: competitive inhibition assay with peptide substrate
# [11] = biological target: T1, human β-factor XIIa (human), P00748; assay: as above
# [12] = biological target: T2, recombinant human matriptase (human), …; assay: as above
# [13] = biological target: T4, kallikrein-related peptidase 4 (KLK4), Q9Y5K2; assay: as above
# T4 chain: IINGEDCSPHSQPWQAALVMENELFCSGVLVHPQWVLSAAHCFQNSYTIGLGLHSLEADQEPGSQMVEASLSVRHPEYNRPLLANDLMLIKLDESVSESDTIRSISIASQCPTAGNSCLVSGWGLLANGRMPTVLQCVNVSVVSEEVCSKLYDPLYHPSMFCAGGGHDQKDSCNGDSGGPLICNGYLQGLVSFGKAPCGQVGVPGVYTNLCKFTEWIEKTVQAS
# [14] = biological target: T1, human β-factor XIIa (human), P00748; assay: mRNA display affinity selection on bead-immobilised biotinylated human β-FXIIa, NGS; share of the sequence in the recovered library
# [15] = biological target: T1, human β-factor XIIa (human), P00748; assay: mRNA display affinity selection on bead-immobilised biotinylated human β-FXIIa, NGS; share of the sequence in the recovered library; peptide displayed as acyclic mRNA fusion
# [16] = biological target: T1, human β-factor XIIa (human), P00748; assay: SPR (Biacore T200), biotinylated human β-FXIIa captured on chip, peptide as analyte, 1:1 model
# [17] = biological target: T1, human β-factor XIIa (human), P00748; assay: competitive protease inhibition assay, 0.5 nM FXIIa, Boc-QGR-MCA substrate
# [18] = biological target: T1, human β-factor XIIa (human), P00748; assay: competitive protease inhibition assay
Binder,Ki [1] [nM],Kd [3] [nM],Kd [6] [nM],Kd [16] [nM],Ki [17] [nM],also measured
DGGICPRIGRLCRRDSDCPGACICRATRFCGSGY (modifications not checked) [MCoFx1 cyclic],0.37,0.9,31.5,–,–,"Ki [2]: 9120 nM; fold lower affinity than MCoTI-II [4]: 300 fold; fold higher affinity than MCoTI-II [5]: 60 fold; EC2× (inhibitor concentration that doubles the clotting time), aPTT assay in human plasma [7]: 702 nM; fold more potent than MCoTI-II [8]: 350 fold; Ki [9]: 1110 nM"
DGGICPRIGRLCRRDSDCPGACICRGNGYCGSGS (modifications not checked) [cMCoTI-fxL1],0.69,–,–,–,–,"Ki [2]: 2210 nM; EC2× (inhibitor concentration that doubles the clotting time), aPTT assay in human plasma [7]: 500 nM; Ki [9]: 996 nM"
RVCPRILKKCRRDSDCPGACICRGNGYCG (modifications not checked) [acyclic MCoTI-II variant M],–,–,–,–,–,Ki [10]: 0.4 nM; Ki [11]: 3.3 nM; Ki [12]: 0.4 nM; Ki [13]: 0.07 nM
"MDGGICPRIGRLCRRDSDCPGACICRATRFCGSGSGS (modifications not checked) [MCoFx1, mRNA display selected sequence (parent of the saturation mutagenesis library)]",–,–,–,–,–,Population (%) [14]: 20.7%
DGGICPRILVYCRRDSDCPGACICIRRTYCGSGS (modifications not checked) [MCoFx2 acyclic],73,45.4,< 0.1,45,–,Population (%) [15]: 19.8%
DGGRCPRLLRWCRRDSDCPGACICARGGLCGSGS (modifications not checked) [MCoFx3 acyclic],525,–,2.39,167,–,Population (%) [15]: 2.3%
DGGVCPRVGWRCRRDSDCPGACICYPTKWCGSGS (modifications not checked) [MCoFx4 acyclic],17,73.8,15.1,74,–,Population (%) [15]: 2.3%
DGGRCCGGYLVCRRDSDCPGACICVFKKHCGSGS (modifications not checked) [MCoFx5 acyclic],106,–,–,23,–,Population (%) [15]: 0.8%
"DGGVCPKILKKCRRDSDCPGACICRGNGYCGSGS (modifications not checked) [MCoTI-II (Momordica cochinchinensis trypsin inhibitor-II), chemically synthesized, cyclic]",–,–,< 0.1,58,–,–
DGGICPRILVYCRRDSDCPGACICIRRTYCGSGS (modifications not checked) [MCoFx2 cyclic],12,10,< 0.1,–,–,–
GGICPRIGRLCRRDSDCPGACICRATGFCGSGSD (not fully specified (bridges); cysteine pairing not given here) [Cyclic [R27G]MCoFx7],–,–,–,–,0.21,fold loss in activity against cyclic MCoFx7 [8]: 3.2 fold
GGICPRIGRLCRRDSDCPGACICRATHFCGSGSD (not fully specified (bridges); cysteine pairing not given here) [Cyclic [R27H]MCoFx7],–,–,–,–,0.12,fold loss in activity against cyclic MCoFx7 [8]: 2 fold
GGICPRIGRLCRRDSDCPGACICRATRFCGSGSP (not fully specified (bridges); cysteine pairing not given here) [Cyclic [D34P]MCoFx7],–,–,–,–,0.091,–
RICPRIGRLCRRDSDCPGACICRATRFCG (modifications not checked) [acyclic variant of MCoFx1 based on a minimized knottin scaffold (29 amino acids)],–,–,–,–,–,Ki [18]: 1.4 nM
GGICPRIGRLCERDSDCPGACICRATRFCGSGSD (not fully specified (bridges); cysteine pairing not given here) [Cyclic [R12E]MCoFx7],–,–,–,–,0.13,fold weaker activity than cyclic MCoFx7 [8]: 2 fold
DGGRCPRLLRWCRRDSDCPGACICARGGLCGSGS (modifications not checked) [MCoFx3 cyclic],75,22.8,2.72,23,–,–
DGGVCPRVGWRCRRDSDCPGACICYPTKWCGSGS (modifications not checked) [MCoFx4 cyclic],5.5,14.4,4.09,14,–,–
DGGRCCGGYLVCRRDSDCPGACICVFKKHCGSGS (modifications not checked) [MCoFx5 cyclic],207,81.8,–,82,–,–
DGGICPRIGRLCRRDSDCPGACICRATRFCGSGY (modifications not checked) [MCoFx1 acyclic],0.73,1.89,59.6,1.9,–,–
GGICPRIGRLCRRDSDCPGACICRATRFCGSGSD (modifications not checked) [Cyclic MCoFx7],–,–,–,–,0.064,–
GGICPRIGRLCVRDSDCPGACICRATRFCGSGSD (not fully specified (bridges); cysteine pairing not given here) [Cyclic [R12V]MCoFx7],–,–,–,–,0.069,–
GGICPRIGRLCTRDSDCPGACICRATRFCGSGSD (not fully specified (bridges); cysteine pairing not given here) [Cyclic [R12T]MCoFx7],–,–,–,–,0.065,–
GGICPRIGRLCRKDSDCPGACICRATRFCGSGSD (not fully specified (bridges); cysteine pairing not given here) [Cyclic [R13K]MCoFx7],–,–,–,–,0.068,–
GGICPRIGRLCRRDSDCPGACICRPTRFCGSGSD (not fully specified (bridges); cysteine pairing not given here) [Cyclic [A25P]MCoFx7],–,–,–,–,0.093,–
GGICPRIGRLCRRDSDCPGACICRKTRFCGSGSD (not fully specified (bridges); cysteine pairing not given here) [Cyclic [A25K]MCoFx7],–,–,–,–,0.046,–
